Data on 2 substances can be found in PMC11953334, “Substrates bind to residues lining the ring of asymmetrically engaged bacterial proteasome activator Bpa” (Nature Communications, 2025).

In test [1] the target is full-length 20S proteasome core particle, β-subunit T1A inactive variant (M. tuberculosis H37Rv) (UniProt P9WHU1). Nature of the test: cryo-EM structure.
For test [2] the target is unchanged. Nature of the test: negative stain EM.

Substance “bacterial proteasome activator Bpa, full-length, wild-type (from UniProt P9WKX3 1-174) (natural protein)” had a percent of core particles capped by Bpa on both ends in test [1] above 90%. In test [2], this substance had a percent of proteasomes doubly capped above 80% and a percent of proteasomes not associated with Bpa below 1%.
In test [2], “covalent dimer of C-terminally truncated Bpa and full-length Bpa (BpaΔC-Bpa) (from UniProt P9WKX3)” showed a percent of proteasomes singly capped of 27% and a percent of proteasomes uncapped of 73%.
